The supplement of paper PMC9112550, “Optimization of the antimicrobial peptide Bac7 by deep mutational scanning” (BMC Biology, 2022)

tested on: Escherichia coli TOP10; test: shrunken log2 fold change of peptide-encoding DNA abundance (4.5 h post-induction vs induction); higher = less antimicrobial activity (less host growth inhibition); settings: time post-induction: 4.5 h; library: site-saturation at positions 5, 18, 19, 20
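Further: peptides expressed intracellularly from a pBAD plasmid library in pooled LB shake-flask culture, induced with 0.3% L-arabinose, DNA abundance read by NGS, three biological replicates, DESeq2 with apeglm shrinkage.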

Sequence | shrunken log2 fold change
RRIRFRPPRLPRPRPRPYICPRP | -0.4
RRIRIRPPRLPRPRPRPTKQPRP | -0.242
RRIRARPPRLPRPRPRPKPPPRP | 0.959
RRIRPRPPRLPRPRPRPNSFPRP | -0.251
RRIRVRPPRLPRPRPRPVCLPRP | 0.619
RRIRRRPPRLPRPRPRPMYWPRP | -0.185
RRIRCRPPRLPRPRPRPYYYPRP | -0.346
RRIRQRPPRLPRPRPRPDPVPRP | 0.0565
RRIRTRPPRLPRPRPRPQLMPRP | -0.137
RRIRNRPPRLPRPRPRPYWQPRP | -0.215
RRIRNRPPRLPRPRPRPYCAPRP | -1.05
RRIRSRPPRLPRPRPRPATEPRP | 0.121
RRIRSRPPRLPRPRPRPNCLPRP | -0.28
RRIRTRPPRLPRPRPRPKIKPRP | -0.561
RRIRVRPPRLPRPRPRPFIRPRP | -0.148
RRIRLRPPRLPRPRPRPKTNPRP | -0.0556
RRIRARPPRLPRPRPRPEENPRP | 1.26
RRIRCRPPRLPRPRPRPSSIPRP | -0.565
RRIRSRPPRLPRPRPRPKRAPRP | 0.326
RRIRGRPPRLPRPRPRPRCEPRP | 0.782
RRIRIRPPRLPRPRPRPYGHPRP | 0.0184
RRIRYRPPRLPRPRPRPAMLPRP | -0.372
RRIRWRPPRLPRPRPRPFWDPRP | 0.00494
RRIRNRPPRLPRPRPRPCENPRP | -0.0018
RRIRVRPPRLPRPRPRPTAEPRP | 0.0994

Sequence | shrunken log2 fold change
RRIRLRPPRLPRPRPRPGDGPRP | 0.869
RRIRSRPPRLPRPRPRPYDLPRP | -0.261
RRIRARPPRLPRPRPRPADVPRP | 0.118
RRIRQRPPRLPRPRPRPFFMPRP | -0.129
RRIRFRPPRLPRPRPRPNHDPRP | -0.332
RRIRTRPPRLPRPRPRPWPYPRP | -0.157
RRIRSRPPRLPRPRPRPVVDPRP | 0.125
RRIRDRPPRLPRPRPRPCWCPRP | -0.00088
RRIRARPPRLPRPRPRPTVFPRP | 0.0832
RRIRSRPPRLPRPRPRPQGGPRP | 0.171
RRIRARPPRLPRPRPRPWSRPRP | -0.151
RRIRARPPRLPRPRPRPAFMPRP | 0.525
RRIRTRPPRLPRPRPRPVENPRP | -0.146
RRIRHRPPRLPRPRPRPMLPPRP | -0.0141
RRIRARPPRLPRPRPRPTTRPRP | 0.61
RRIRARPPRLPRPRPRPMGTPRP | 0.304
RRIRARPPRLPRPRPRPTRDPRP | 0.759
RRIRTRPPRLPRPRPRPHLNPRP | -0.358
RRIRIRPPRLPRPRPRPYHNPRP | -1.25
RRIRHRPPRLPRPRPRPAYAPRP | -0.182
RRIRERPPRLPRPRPRPMHSPRP | 0.0314
RRIRPRPPRLPRPRPRPMNGPRP | 0.137
RRIRTRPPRLPRPRPRPEYMPRP | -0.263
RRIRLRPPRLPRPRPRPLFWPRP | 0.12
RRIRNRPPRLPRPRPRPWIQPRP | -0.209

Sequence | shrunken log2 fold change
RRIRIRPPRLPRPRPRPCLWPRP | 0.0796
RRIRVRPPRLPRPRPRPASEPRP | 0.0395
RRIRARPPRLPRPRPRPNYHPRP | -0.425
RRIRERPPRLPRPRPRPYWTPRP | -0.0954
RRIRDRPPRLPRPRPRPCCIPRP | 0.168
RRIRDRPPRLPRPRPRPFCLPRP | 0.0132
RRIRNRPPRLPRPRPRPHEPPRP | 0.247
RRIRERPPRLPRPRPRPIRGPRP | 0.0978
RRIRMRPPRLPRPRPRPLNRPRP | 0.0437
RRIRYRPPRLPRPRPRPIGVPRP | -0.0936
RRIRTRPPRLPRPRPRPWDLPRP | 0.12
RRIRDRPPRLPRPRPRPFQFPRP | -0.324
RRIRRRPPRLPRPRPRPNGVPRP | 0.00234
RRIRPRPPRLPRPRPRPFFRPRP | -0.0565
RRIRKRPPRLPRPRPRPAIDPRP | 0.113
RRIRVRPPRLPRPRPRPWPWPRP | 0.197
RRIRMRPPRLPRPRPRPNFDPRP | 0.622
RRIRARPPRLPRPRPRPCDAPRP | 0.344
RRIRYRPPRLPRPRPRPDKPPRP | -0.0375
RRIRSRPPRLPRPRPRPPFLPRP | -0.0588
RRIRWRPPRLPRPRPRPCIAPRP | 0.00205
RRIRLRPPRLPRPRPRPFAHPRP | -0.367
RRIRLRPPRLPRPRPRPNWKPRP | -0.225
RRIRCRPPRLPRPRPRPDKQPRP | -0.0405
RRIRQRPPRLPRPRPRPGEHPRP | -0.0241

Sequence | shrunken log2 fold change
RRIRPRPPRLPRPRPRPWMGPRP | -0.114
RRIRLRPPRLPRPRPRPMRGPRP | 0.839
RRIRARPPRLPRPRPRPNNRPRP | -0.326
RRIRARPPRLPRPRPRPSRNPRP | -0.0178
RRIRFRPPRLPRPRPRPNTPPRP | -0.263
RRIRERPPRLPRPRPRPMPAPRP | -0.0153
RRIRWRPPRLPRPRPRPHSNPRP | -0.09
RRIRCRPPRLPRPRPRPIIPPRP | -0.645
RRIRCRPPRLPRPRPRPDCPPRP | -0.343
RRIRQRPPRLPRPRPRPVHQPRP | -0.104
RRIRLRPPRLPRPRPRPCYIPRP | -0.115
RRIRCRPPRLPRPRPRPTQFPRP | 0.167
RRIRLRPPRLPRPRPRPQPQPRP | 0.396
RRIRIRPPRLPRPRPRPPLLPRP | 0.444
RRIRMRPPRLPRPRPRPSMKPRP | 0.0872
RRIRQRPPRLPRPRPRPVVVPRP | -0.0728
RRIRERPPRLPRPRPRPKSYPRP | -0.0792
RRIRCRPPRLPRPRPRPLNTPRP | -0.343
RRIRGRPPRLPRPRPRPHRQPRP | 0.0397
RRIRQRPPRLPRPRPRPPPKPRP | 0.876
RRIRRRPPRLPRPRPRPCHCPRP | -0.0688
RRIRVRPPRLPRPRPRPTFRPRP | 0.218
RRIRWRPPRLPRPRPRPDFYPRP | -0.11
RRIRKRPPRLPRPRPRPMHQPRP | 0.003
RRIRWRPPRLPRPRPRPFTIPRP | -0.212

Sequence | shrunken log2 fold change
RRIRCRPPRLPRPRPRPMSNPRP | -0.64
RRIRDRPPRLPRPRPRPEVCPRP | 0.0705
RRIRYRPPRLPRPRPRPKLEPRP | 0.00557
RRIRERPPRLPRPRPRPYWFPRP | -1.02
RRIRMRPPRLPRPRPRPTAMPRP | 1.14
RRIRCRPPRLPRPRPRPSDCPRP | -0.387
RRIRIRPPRLPRPRPRPFGCPRP | -0.742
RRIRQRPPRLPRPRPRPISYPRP | 0.0146
RRIRARPPRLPRPRPRPCFQPRP | 0.105
RRIRIRPPRLPRPRPRPWGHPRP | -0.0191
RRIRVRPPRLPRPRPRPRYAPRP | -0.000525
RRIRHRPPRLPRPRPRPGIAPRP | -0.0902
RRIRDRPPRLPRPRPRPYHPPRP | -0.449
RRIRWRPPRLPRPRPRPFRHPRP | -0.0307
RRIRLRPPRLPRPRPRPTSYPRP | -0.395
RRIRYRPPRLPRPRPRPYHQPRP | -0.662
RRIRERPPRLPRPRPRPNPKPRP | -0.0343
RRIRDRPPRLPRPRPRPFSFPRP | -0.763
RRIRGRPPRLPRPRPRPQSDPRP | 0.254
RRIRARPPRLPRPRPRPHFRPRP | 0.166
RRIRQRPPRLPRPRPRPHPAPRP | -0.114
RRIRQRPPRLPRPRPRPIFLPRP | 0.805
RRIRTRPPRLPRPRPRPCPCPRP | -0.366
RRIRIRPPRLPRPRPRPSPCPRP | -0.761
RRIRARPPRLPRPRPRPILHPRP | -0.0341

Sequence | shrunken log2 fold change
RRIRLRPPRLPRPRPRPNKGPRP | -0.254
RRIRPRPPRLPRPRPRPVVHPRP | -0.205
RRIRDRPPRLPRPRPRPMREPRP | -0.0167
RRIRCRPPRLPRPRPRPWNDPRP | 0.00383
RRIRIRPPRLPRPRPRPINAPRP | -0.431
RRIRHRPPRLPRPRPRPGTWPRP | -0.0162
RRIRDRPPRLPRPRPRPSHGPRP | -0.0107
RRIRPRPPRLPRPRPRPNRPPRP | 0.274
RRIRPRPPRLPRPRPRPWFYPRP | -0.543
RRIRMRPPRLPRPRPRPASHPRP | 0.343
RRIRWRPPRLPRPRPRPHLTPRP | -0.19
RRIRERPPRLPRPRPRPANFPRP | -0.163
RRIRDRPPRLPRPRPRPIQVPRP | -0.0916
RRIRQRPPRLPRPRPRPWSKPRP | 0.00202
RRIRERPPRLPRPRPRPKNMPRP | -0.479
RRIRCRPPRLPRPRPRPSFQPRP | -0.384
RRIRDRPPRLPRPRPRPTRHPRP | 0.42
RRIRRRPPRLPRPRPRPRSNPRP | 0.224
RRIRWRPPRLPRPRPRPRKRPRP | 0.726
RRIRYRPPRLPRPRPRPHGYPRP | -0.0146
RRIRKRPPRLPRPRPRPSMDPRP | 0.0069
RRIRWRPPRLPRPRPRPTFNPRP | 0.00157
RRIRERPPRLPRPRPRPFVAPRP | 0.0108
RRIRWRPPRLPRPRPRPQQDPRP | 0.0825
RRIRTRPPRLPRPRPRPTPSPRP | 0.563
